The values that follow come from patent US20210024625A1 (published 2021).

Holding throughout (assay): cell-based or functional assay
The target in test [1] is PfRH5 from Plasmodium falciparum strain W2-mef (Plasmodium falciparum).
The target in test [2] is T1, PfRH5 from Plasmodium falciparum strain 3D7 (Plasmodium falciparum, UniProt Q8IFM5 25-526).
T1 sequence: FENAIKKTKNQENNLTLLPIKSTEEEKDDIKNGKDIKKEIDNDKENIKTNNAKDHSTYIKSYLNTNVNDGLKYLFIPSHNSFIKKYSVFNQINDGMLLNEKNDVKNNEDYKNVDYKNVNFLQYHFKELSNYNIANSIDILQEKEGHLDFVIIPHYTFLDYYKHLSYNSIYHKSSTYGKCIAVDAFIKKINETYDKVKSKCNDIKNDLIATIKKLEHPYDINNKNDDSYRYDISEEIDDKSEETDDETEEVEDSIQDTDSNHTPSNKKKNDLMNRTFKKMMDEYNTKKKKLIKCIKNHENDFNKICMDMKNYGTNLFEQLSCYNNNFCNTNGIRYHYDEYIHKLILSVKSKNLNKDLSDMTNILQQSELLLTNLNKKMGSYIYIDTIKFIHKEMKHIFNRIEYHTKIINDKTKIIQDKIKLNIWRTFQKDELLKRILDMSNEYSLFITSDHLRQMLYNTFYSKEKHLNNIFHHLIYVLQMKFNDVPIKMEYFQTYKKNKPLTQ

Test [3] addresses PfRH5 from Plasmodium falciparum strain 7G8 (Plasmodium falciparum).
Test [4] addresses PfRH5 from Plasmodium falciparum strain FCR-1/FVO (Plasmodium falciparum).
Test [5] concerns the target T2, PfRH5 from Plasmodium falciparum strain Dd2 (Plasmodium falciparum).
The target in test [6] is PfRH5 from Plasmodium falciparum strain Cam3.II (Plasmodium falciparum).
Test [7] deals with PfRH5 from Plasmodium falciparum strain D10 (Plasmodium falciparum).
Test [8] addresses PfRH5 from Plasmodium falciparum strain RF7 (Plasmodium falciparum).
Test [9] has as its target PfRH5 from Plasmodium falciparum strain HB3 (Plasmodium falciparum).
Test [10] addresses T2, PfRH5 from Plasmodium falciparum strain …. The source holds these as a separate data set.

B1: H1H29094P (antibody, V domains shown)
VH: not shown
VL: DIQMTQSPSSLSASVGDRVTITCQASQDINRDLNWYQQKSGKGPKLLIYDASNLETGVPSRFSGNRFGTDFTFTISRLQPEDIATYFCQQYKNLPYTFGQGTKLEIKR
On to B1, for which the “Max growth inhibition (%)” value was determined as 34.9% in [1]; 14.4% in [2]; 29.9% in test [3]; 51.2% in test [4]; 41.6% in [5]; 26.2% in test [6]. For the same molecule, the “Max growth inhibition (%)” value worked out at 35.9% in test [7], 15.2% in test [8] and 45.4% in test [9].

B2: H1H29106P (antibody, V domains shown)
VH: QVQLVESGGGVVQSGRSLRLSCAASSFTFSSYGMHWVRQSPGKGLEWVAVISYDGSNKYYGDFVRGRFTISRDNSKNTLYLQMNSLRAEDTAMYYCAREVRRYYYYGMDVWGQGTTVTVSS
VL: not shown
With B2, the “Max growth inhibition (%)” value came to 48.9% in test [1]; 58% in test [2]; 55.5% in test [3]; 54.3% in test [4]; 54% in test [5]; 51.7% in test [6]. Besides, the “Max growth inhibition (%)” value amounted to 74.9% in test [7], 27.4% in test [8] and 48.4% in [9].

B3: H1H29171P2 (antibody, V domains shown)
VH: QVQLVESGGGVVQPGRSLRLSCAASGFTFSSYGMHWVRQAPGKGLEWVAVISYDGSNKYYADSVKGRFTISRDNSKNTLYLQMNSLRAEDTAVYYCAKDDWNYDAFDIWGQGTMVTVSS
VL: not shown
Regarding B3, the “Max growth inhibition (%)” value is 0.74% in test [1]; 4.04% in [2]; 17% in [3]; 11.7% in test [4]; 7.71% in [5]; 5.45% in test [6]. Moreover, the “Max growth inhibition (%)” value is 10.6% in test [7], -12.5% in [8] and 0.52% in test [9].

B4: H1H29151P2 (antibody, V domains shown)
VH: QVQLVESGGGLVKPGGSLRLSCAASGFTFSDYYMNWVRQAPGKGLEWVSYISNSGNTQYYADSVKGRFTISRDNAKNSLFLQMNSLRAEDTAVYYCTREGLEYSSSEPFDYWGQGTLVTVSS
VL: not shown
As to B4, the “Max growth inhibition (%)” value in [1] was 53.9%; in [2] it was 35.5%; in [3], 47.5%; in [4], 53.7%; in test [5], 58%; in [6], 26.3%. Also, the results for the “Max growth inhibition (%)” value in test [7], in test [8] and in test [9] were 38.7%, 18.3% and 31.7%, respectively.

B5: H1H29179P2 (antibody, V domains shown)
VH: QVQLQESGPGLVKPSQTLSLTCTVSGGSISSSGYYWSWIRQHPGRGLEWIGYIYYSGSTYYNPSLKSRVTISVDTSKNQFSLKLNSVTAADTAVYYCARVDYGSGSSFDYWGQGTLVTVSS
VL: not shown
Turning to B5, the “Max growth inhibition (%)” value in test [1] amounted to 22.9%; in [2], 24.2%; in test [3] it was 34.1%; in test [4] it was 49%; in test [5] it was 13.5%; in test [6] it was 33.4%. Further, the entries for the “Max growth inhibition (%)” value in [7], in test [8] and in [9] were 62.5%, -2.99% and 40.9%, respectively.

B6: H1H29143P (antibody, V domains shown)
VH: EVQLVESGGGLVQPGGSLRLSCAASGFTFNNYAMSWVRQAPGRGLEWVSAISGSGDSTYYSDSVKGRFTISRDNSKNTLYLQMNSLRAEDTAVYYCAKDQGLYYYGSGSFDYWGQGTLVTVSS
VL: not shown
As for B6, in test [10], the “Maximum growth inhibition (%)” value came out at 56%. In addition, the “Max growth inhibition (%)” value in [1] came out at 58.3%; in test [2], 60.3%; in [3], 61.9%; in test [4], 67.2%; in test [5], 62.7%; in [6] it was 53.2%. Also, the “Max growth inhibition (%)” value in [7] amounted to 79.4%; in test [9], 60.9%.

B7: H1H29166P2 (antibody, V domains shown)
VH: EVQLVESGGGLLQPGRSLRLSCVASGFTFDDYAMHWVRQAPGKGLEWVSGISWNSESIGYADSVRGRFTISRDNAKNSLYLQMNSLRAEDTALYYCAKAPYSGTYFEYFRHWGQGTLVTVSS
VL: not shown
For B7, the “Max growth inhibition (%)” value was determined as 61.9% in [1]; 53.1% in [2]; 54.6% in [3]; 69.7% in [4]; 60% in test [5]; 55.9% in test [6]. The “Max growth inhibition (%)” value is 70.9% in test [7], 19.4% in [8] and 54.9% in test [9].

B8: H1H29104P (antibody, V domains shown)
VH: EVQLVESGGGLVQPGRSLRLSCAASGFRFDDYAMHWVRQAPGKGLEWVSGINWNSGGKGYADSVQGRFTISRDNAKNSLYLQMNSLRTEDTALYYCAKDRGIAARLLSRDAFDMWGQGTMVTVSS
VL: DIQLTQSPSFLSASVGDRVTITCWASQDVSSYLAWYQQKPGKSPKLLIFAASTLQGGIPSRFSGSGSGTEFTLTISSLRPEDFATYYCQHLNTYPYTFGQGTKLEIKR
Turning to B8, the “Maximum growth inhibition (%)” value in test [10] is 54.1%. Also, the “Max growth inhibition (%)” value turned out to be 47.4% in [1]; 34.4% in test [2]; 35.2% in [3]; 67.4% in test [4]; 61.3% in [5]; 50% in test [6]. Also, the “Max growth inhibition (%)” value worked out at 55.7% in test [7], 23.6% in test [8] and 39.8% in test [9].

B9: H1H29109P (antibody, V domains shown)
VH: EVQLVESGGGLVQPGRSLRLSCAVSGFTFDDYAMHWVRQAPGKGLEWVSGISWNSGDIDYADSVKGRFTISRDNAKNSLYLQMNSLRAEDTALYYCAKDTLSGTGTTWYYFDYWGQGTLVTVSS
VL: DIQLTQSPSFLSASVGDRVTITCWASQGISSYLIWYQQKPGKAPKLLIYAASTLQSGVPSRFSGSGSGTEFTLTISSLQPEDFATYYCQQVNSYPLTFGGGTKVEIKR
In the case of B9, the “Max growth inhibition (%)” value worked out at 37.9% in test [1]; 32.2% in test [2]; 39% in test [3]; 56.7% in test [4]; 42% in [5]; 35.9% in test [6]. The “Max growth inhibition (%)” value is 44.8% in test [7], 8.24% in [8] and 32.2% in [9].

B10: H1H29183P2 (antibody, V domains shown)
VH: QVQLVQSGPEVKKPGASVKVSCKASGYTFTSYGISWVRQAPGQGLEWLGWISGFNGRTDYTEKLQDRITMTTDRSSSTAYMELRSLRYDDTAVYYCARDGLEKLGDYWGQGTLVTVSS
VL: not shown
For the molecule B10, the “Max growth inhibition (%)” value in [1] is -0.55%; in test [2] it was 5.68%; in [3], 17.8%; in [4], 16.1%; in test [5], 0.68%; in [6] it was 8.66%. For the same molecule, the “Max growth inhibition (%)” value was 6.79% in [7], -6.27% in test [8] and 4.92% in [9].
